In paper PMC12081870 (Communications Biology, 2025):

Test system: Las17 PPR-N fragment (residues 300-422)
Assay: Biolayer Interferometry (BLI), Sla1 SH3 domains to Las17 PPR-N
Assay type: binding, Saccharomyces cerevisiae
Conditions: for fold increase in affinity over single SH3 domain: BLI, tandem vs single SH3 domain
Source text: To investigate binding characteristics of the SH3 domains further, Sla1 SH3 protein domains were purified. Three Sla1 SH3 single domains, tandem domains Sla1 SH3#1&2, Sla1 SH3#1&2 W108A (in which the W108A mutation prevents proline motif binding by SH3#2 but not SH3#1) and a fragment with all three SH3 domains were expressed recombinantly and purified. […] This outcome is in line with original research of Rodal and colleagues and with more recent studies of avidity developed by Williamson, which highlighted the importance of tandem binding SH3 domains[13],[27].
Biolayer Interferometry (BLI) assays were performed using an OctetⓇ R2 (Sartorius). Protein samples were placed into the wells of a polystyrene plate (ProxiPlateTM, Perkin Elmer) and binding measured either with Octet NTA Biosensors or Octet GST Biosensors. Screening assays were performed to determine the optimum loading concentration and time for each binding pair to ensure that the probe was not saturated. All experiments were repeated three times, each time with newly prepared protein. Analysis and visualisation were performed using GraphPad Prism 10.0.2.

B1: Sla1 SH3#1-2: SH3#1-2 (aa 5-131), tandem domains; sequence in b253 (protein)
chain: LGIYRAVYAYEPQTPEELAIQEDDLLYLLQKSDIDDWWTVKKRVIGSDSEEPVGLVPSTYIEEAPVLKKVRAIYDYEQVQNADEELTFHENDVFDVFDDKDADWLLVKSTVSNEFGFIPGNYVEPEN
modifications: 15N-labelled (NMR only); left off: GST, end not stated, cleaved
fold increase in affinity over single SH3 domain: ~100 fold
fold increase in affinity over single SH3 domain (listed as tandem Sla1 SH3 domains): > 100 fold
Kd (Biolayer Interferometry, Octet R2, Las17 (aa 300-422), three repeats with newly prepared protein, read-out: binding affinity (Kd)): 87 nM
